{"source": "paper PMC2217618", "about": "(Apoptosis, 2007)", "biological_target": "αvβ3 integrin (human (endogenous in HUVEC), UniProt P06756;P05106)", "sequence (P06756 31-1048, chain 1 of 2)": "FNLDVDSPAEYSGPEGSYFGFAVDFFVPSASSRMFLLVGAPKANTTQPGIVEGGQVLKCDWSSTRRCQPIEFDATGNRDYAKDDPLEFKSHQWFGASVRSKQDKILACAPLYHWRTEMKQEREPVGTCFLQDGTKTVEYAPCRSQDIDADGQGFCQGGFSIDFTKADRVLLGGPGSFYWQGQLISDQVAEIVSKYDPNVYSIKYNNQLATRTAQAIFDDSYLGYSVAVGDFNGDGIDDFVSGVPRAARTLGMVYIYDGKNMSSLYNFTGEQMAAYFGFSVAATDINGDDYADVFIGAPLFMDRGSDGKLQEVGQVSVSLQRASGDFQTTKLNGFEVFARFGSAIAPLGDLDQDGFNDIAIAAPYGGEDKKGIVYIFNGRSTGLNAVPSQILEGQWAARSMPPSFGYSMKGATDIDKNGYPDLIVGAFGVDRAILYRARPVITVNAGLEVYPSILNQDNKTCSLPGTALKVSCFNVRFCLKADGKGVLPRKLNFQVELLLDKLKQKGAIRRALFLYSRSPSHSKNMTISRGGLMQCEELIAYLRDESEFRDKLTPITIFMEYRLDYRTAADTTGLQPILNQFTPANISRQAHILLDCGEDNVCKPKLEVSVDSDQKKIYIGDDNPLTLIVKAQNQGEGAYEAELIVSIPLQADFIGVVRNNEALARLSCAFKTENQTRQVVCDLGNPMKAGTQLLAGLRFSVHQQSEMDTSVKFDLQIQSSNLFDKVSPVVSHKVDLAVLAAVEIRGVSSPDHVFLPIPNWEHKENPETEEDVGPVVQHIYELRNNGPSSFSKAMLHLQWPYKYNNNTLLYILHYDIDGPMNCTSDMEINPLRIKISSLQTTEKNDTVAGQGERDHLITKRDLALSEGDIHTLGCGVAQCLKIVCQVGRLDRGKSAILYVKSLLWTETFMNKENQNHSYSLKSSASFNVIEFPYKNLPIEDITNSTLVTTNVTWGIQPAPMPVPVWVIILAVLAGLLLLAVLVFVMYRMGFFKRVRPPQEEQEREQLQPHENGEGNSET", "sequence (P05106 27-788, chain 2 of 2)": "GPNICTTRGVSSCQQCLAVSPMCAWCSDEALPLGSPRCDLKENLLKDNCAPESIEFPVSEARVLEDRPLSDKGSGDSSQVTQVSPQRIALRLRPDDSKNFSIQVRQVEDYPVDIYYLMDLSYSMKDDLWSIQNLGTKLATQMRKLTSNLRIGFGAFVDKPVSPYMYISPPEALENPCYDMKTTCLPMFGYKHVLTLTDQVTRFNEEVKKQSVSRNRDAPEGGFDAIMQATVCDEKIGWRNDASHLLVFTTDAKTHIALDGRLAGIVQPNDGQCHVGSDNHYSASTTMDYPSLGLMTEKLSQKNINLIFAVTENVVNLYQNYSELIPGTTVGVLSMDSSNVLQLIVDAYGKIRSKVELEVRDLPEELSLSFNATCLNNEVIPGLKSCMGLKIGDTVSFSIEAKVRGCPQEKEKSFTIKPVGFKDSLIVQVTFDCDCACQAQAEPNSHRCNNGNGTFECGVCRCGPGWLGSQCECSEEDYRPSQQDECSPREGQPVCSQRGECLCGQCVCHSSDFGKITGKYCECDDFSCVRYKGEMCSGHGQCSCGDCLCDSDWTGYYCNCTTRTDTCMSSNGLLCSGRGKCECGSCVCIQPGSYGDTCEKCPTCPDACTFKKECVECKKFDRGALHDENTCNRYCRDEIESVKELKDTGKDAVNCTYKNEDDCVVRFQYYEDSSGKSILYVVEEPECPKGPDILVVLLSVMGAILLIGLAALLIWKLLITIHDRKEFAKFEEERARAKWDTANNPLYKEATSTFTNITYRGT", "test": "radioligand binding", "note": "[ ]: non-standard residue; d: D form."}
{"binder": "cyclo(RGD[dF]K(S‑acetylthioacetyl))", "note": "[RGD peptide c(RGDf(ε-S-acetylthioacetyl)K)]", "values": [{"measurement": "IC50", "result": 383, "unit": "nM"}]}
